Data reported in paper PMC5372222.

Key:
[1] = target: T1, human alpha-thrombin (Homo sapiens, UniProt P00734;P00734 328-363;364-622); assay: blot with Apt-AuNP probe and gold enhancement; thrombin in 10-fold diluted human serum on PVDF; strong background from serum proteins; binding buffer 100 mM NaCl, 20 mM Tris-HCl, 2 mM MgCl2, 5 mM KCl, 1 mM CaCl2, 0.02% Tween 20; pH and temperature of binding not stated
[2] = target: T1, human alpha-thrombin; assay: blot with protected Apt-AuNP probe and gold enhancement; thrombin in 10-fold diluted human serum on PVDF; protection DNA 1 uM before 10x dilution; as low as 30 ng detected; binding buffer 100 mM NaCl, 20 mM Tris-HCl, 2 mM MgCl2, 5 mM KCl, 1 mM CaCl2, 0.02% Tween 20; pH and temperature of binding not stated

Row | Binder | binding result [1] | binding result [2]
1 | GGTTGGTGTGGTTGG (ssDNA, 5'-SH-(CH2)6 thiol) [thrombin 15-mer aptamer on AuNP (Apt-AuNP)] | binds | 
2 | thrombin 15-mer aptamer protected with PolyA-Oligo10 on AuNP (mixed, 5'-SH-(CH2)6 thiol on strand 1) DNA: GGTTGGTGTGGTTGG ?: AAAAAAAAAAAAAAAAAAAACCAACCACAC |  | binds
